How the values were obtained:
CTNNA1 (catenin alpha 1) [1] = molecular target: T1, CTNNA1 (catenin alpha 1) (UniProt P35221 2-906); assay: MST; MST: 50 nM labeled CTNNA1 in 10 mM PBS pH 7.4, EA2 0.00153-50 uM in 10 mM PBST (0.05% Tween-20) pH 7.4; temperature not stated; settings: tags: RED-NHS dye label; predicted mFold secondary structure
CTNNA1 (catenin alpha 1) [2] = molecular target: T1, CTNNA1 (catenin alpha 1); assay: MST; no antibody (control of the antibody competition); MST: 50 nM labeled CTNNA1 in 10 mM PBS pH 7.4, EA2 0.00153-50 uM in 10 mM PBST (0.05% Tween-20) pH 7.4; temperature not stated; settings: tags: RED-NHS dye label; predicted mFold secondary structure

T1 sequence (P35221 2-906): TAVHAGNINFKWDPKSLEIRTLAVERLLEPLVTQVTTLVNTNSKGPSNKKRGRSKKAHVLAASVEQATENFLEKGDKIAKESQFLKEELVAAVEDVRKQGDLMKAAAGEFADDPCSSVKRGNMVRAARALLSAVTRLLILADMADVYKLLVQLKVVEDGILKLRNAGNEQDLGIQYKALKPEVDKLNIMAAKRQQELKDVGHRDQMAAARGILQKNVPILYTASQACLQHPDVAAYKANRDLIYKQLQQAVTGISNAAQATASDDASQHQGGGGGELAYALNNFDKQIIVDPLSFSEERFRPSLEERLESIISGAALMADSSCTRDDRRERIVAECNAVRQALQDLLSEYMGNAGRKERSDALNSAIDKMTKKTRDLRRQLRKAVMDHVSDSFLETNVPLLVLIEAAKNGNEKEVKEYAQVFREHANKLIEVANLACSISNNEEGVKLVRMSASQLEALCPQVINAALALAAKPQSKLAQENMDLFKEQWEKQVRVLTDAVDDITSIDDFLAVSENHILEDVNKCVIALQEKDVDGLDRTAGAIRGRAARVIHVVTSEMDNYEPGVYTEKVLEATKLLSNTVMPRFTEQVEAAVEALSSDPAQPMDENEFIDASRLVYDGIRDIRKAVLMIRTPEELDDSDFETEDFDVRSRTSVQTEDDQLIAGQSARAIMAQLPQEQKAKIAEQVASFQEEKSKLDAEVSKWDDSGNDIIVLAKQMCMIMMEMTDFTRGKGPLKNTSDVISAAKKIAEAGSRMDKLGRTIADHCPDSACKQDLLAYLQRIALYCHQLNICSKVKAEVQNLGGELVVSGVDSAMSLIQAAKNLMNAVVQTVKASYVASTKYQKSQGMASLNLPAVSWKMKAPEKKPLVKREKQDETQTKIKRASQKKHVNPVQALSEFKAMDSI

B1: EA2 (ssDNA)
DNA: AGCCTAAGCCTGTCCAGGAATCGTGCAGCCATAGCCTAAGCCTGTCCAGGAATCGATGGCTTAGTGGCACGATTAGGTC
B1 showed a Kd (CTNNA1 (catenin alpha 1) [1]) of 2070 ± 600 nM and a Kd (CTNNA1 (catenin alpha 1) [2]) of 2300 ± 600 nM.
